The text below walks through data of patent US20210284747A1.

Residue numbers refer to the chain shown, from its start.

The target of test [1] is Human LIGHT stably expressed on EL4 cells (EL4-LIGHT) (human) (UniProt O43557). Put plainly: flow cytometry, EL4-LIGHT cells.
In test [2] the target is LIGHT without residues 81-84, stably expressed on EL4 cells (EL4-NC-LIGHT). Briefly: cell-based or functional assay.
Test [3] concerns the target Wild type full length LIGHT on HEK293FF cells (alanine scanning control) (UniProt O43557). Put plainly: flow cytometry, HEK293FF, mAb at EC50. For orientation: A flow cytometer gives signals particle by particle.

Sequence of Human LIGHT stably expressed on EL4 cells (EL4-LIGHT) (human) (O43557 whole entry, the tested form may be a part): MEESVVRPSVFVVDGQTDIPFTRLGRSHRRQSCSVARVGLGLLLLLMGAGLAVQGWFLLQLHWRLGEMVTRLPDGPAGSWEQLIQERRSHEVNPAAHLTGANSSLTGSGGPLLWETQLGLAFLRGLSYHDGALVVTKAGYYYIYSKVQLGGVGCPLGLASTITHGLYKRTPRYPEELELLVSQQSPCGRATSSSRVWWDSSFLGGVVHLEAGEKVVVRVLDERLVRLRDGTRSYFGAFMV

B1: 3B04_var13 (antibody, V domains shown)
VH: QVQLVQSGAEVKKPGASVKVSCKASGYTFTDYEMHWVRQAPGQGLEWIGEIDPETGDTAYSQKFKGRATLTADKSTSTAYMEFSSLRSEDTAVYYCSRETDYFFDYWGQGTLVTVSS
VL: DIQMTQSPSSLSASVGDRVTITCRASENIYGALNWYQQKPGKAPKLLIYGATNLAEGVPSRFSGSGSGRDYTLTISSLQPEDFATYYCQNVLTTPWTFGQGTKLEIKR
In test [1], B1 returned an EC50 of 0.32 nM. For the same molecule, in test [2], the IC50, inhibition of IL-8 secretion, HT-29 + EL4-NC-LIGHT cells came out at 0.04 nM.

B2: 3D12_var16 (antibody, V domains shown)
VH: B1 VH with Y32S, I48M, D57G, S61A, K65Q, A68V, F83L
VL: B1 VL with F83V, T93S
B2 showed an EC50 in test [1] of 0.26 nM. The IC50, inhibition of IL-8 secretion, HT-29 + EL4-NC-LIGHT cells in test [2] came to 0.52 nM.

B3: 3B04_var16 (antibody, V domains shown)
VH: B1 VH with I48M, S61A, K65Q, A68V, F83L
VL: B1 VL
The molecule B3 had an EC50 in test [1] of 0.24 nM. In test [2], the IC50, inhibition of IL-8 secretion, HT-29 + EL4-NC-LIGHT cells is 0.1 nM.

B4: 3D12_var15 (antibody, V domains shown)
VH: B1 VH with G26D, Y32S, M34I, I48M, D57G, S61A, K65Q, A68V, F83L
VL: B1 VL with F83V, T93S
B4 had an EC50 in test [1] of 0.22 nM. In addition, in test [2], the IC50, inhibition of IL-8 secretion, HT-29 + EL4-NC-LIGHT cells came out at 0.38 nM.

B5: 3D12_var13 (antibody, V domains shown)
VH: B1 VH with G26D, Y32S, M34I, D57G, S61N, F83L
VL: B1 VL with F83V, T93S
With B5, the EC50 in test [1] worked out at 0.24 nM. In addition, the IC50, inhibition of IL-8 secretion, HT-29 + EL4-NC-LIGHT cells in test [2] was determined as 0.45 nM.

B6: 3D12_var14 (antibody, V domains shown)
VH: B1 VH with G26D, Y32S, M34I, D57G, S61N, K65Q, A68V, F83L
VL: B1 VL with F83V, T93S
As to B6, the EC50 in test [1] worked out at 0.23 nM. Also, the IC50, inhibition of IL-8 secretion, HT-29 + EL4-NC-LIGHT cells in test [2] turned out to be 0.45 nM.

B7: 3B04_var14 (antibody, V domains shown)
VH: B1 VH with K65Q, A68V
VL: B1 VL
The molecule B7 returned an EC50 in test [1] of 0.3 nM. Further, the IC50, inhibition of IL-8 secretion, HT-29 + EL4-NC-LIGHT cells in test [2] was found to be 0.05 nM.

B8: 2E08 chimeric IgG4 mAb (antibody, V domains shown)
VH: QVQMKESGAELVRPGVSVKISCKGSGYTFTDYAIHWVKQSHAKTLEWIGVISTYYGDASYNQKFKGKATMTVDKSSSTAYMELARLTSDDSAIYYCARSRGEYGNYDAMDYWGQGTSVTVSS
VL: DIVLTQSPASLAVSLGQRATISCKASQSVDYDGDSYMNWYQQKPGQPPKLLIYAASNLESGIPARFSGSGSGTDFTLNIHPVEEEDAATYYCQQSNEDPLTFGAGTKLELK
In test [3], B8 had a % of WT binding of 100%.

B9: 2B11 chimeric IgG4 mAb (antibody, V domains shown)
VH: B8 VH with Q1E, M4L, K5V, T44S, D89E
VL: DIVLTQSPASLAVSLGQRATISCRASESVDSYGNSFMHWYQQKPGQPPKLLIYRASNLESGIPARFSGSGSRTDFTLTINPVEADDVATYYCQQSNEDPYTFGGGTKLEIK
In turn, B9 had a % of WT binding in test [3] of 100%.

B10: 3B04 chimeric IgG4 mAb (antibody, V domains shown)
VH: QVQLQQPGAELVRPGASVTLSCKASGYTFTDYEMHWVKQTPVHGLEWIGEIDPETGDTAYSQKFKGKATLTADKSSSTAYMEFRSLTSEDSAVYYCSRETDYFFDYWGQGTTLTVSS
VL: DIQMTQTPASLSASVGETVTITCGASENIYGALNWYQRKQGKSPQLLIYGATNLADGMSSRFSGSGSGRQYSLKISSLHPDDFATYYCQNVLTTPWTFGGGTKLEIK
Take B10: the % of WT binding in test [3] was found to be 100%.

B11: 3C10 chimeric IgG4 mAb (antibody, V domains shown)
VH: B10 VH with Q1E, P7S, G26D, Y32S, M34I, D57G, S61N, F83L
VL: DVVMTQTPAIMSASPGEKVTMTCSASSSVSYMYWYQQKPGSSPRLLIYDTSNLASGVPVRFSGSGSGTSYSLTISRMEAEDAATYYCQQWSSYPLTFGAGTKLELK
In turn, B11 came in with a % of WT binding in test [3] of 100%.

B12: 3A07 chimeric IgG4 mAb (antibody, V domains shown)
VH: B10 VH with P7S, S17P, G26D, Y32S, M34I, D57G, S61N, F83L
VL: B11 VL with D1E, V2N, M4L, T7S, K38R, A99S, L105I
Molecule B12 yielded a % of WT binding in test [3] of 100%.

B13: 3D12 chimeric IgG4 mAb (antibody, V domains shown)
VH: B10 VH with G26D, Y32S, M34I, D57G, S61N, F83L
VL: B10 VL with T7S, F83V, T93S
For the molecule B13, the % of WT binding in test [3] was found to be 100%.

What is called EC50 is the concentration giving half of the maximal effect. A high value points to a less potent agent.
